{"source": "IntAct's records for PubMed 20581866", "parents": {"B1": {"name": "ATPase family AAA domain-containing protein 2 (Mus musculus), Q8CDM1 (parent)", "chain": "MSLLKMRRHAIHSSDSTSSSSSEDDCFERRTKRNRNRAINRCLPLNFRKDEIRGIYKDRMKIGASLADVDPMQLDTSVRFDSVGGLSSHIAALKEMVVFPLLYPEVFEKFKIQPPRGCLFYGPPGTGKTLVARALANECSRGDKRVAFFMRKGADCLSKWVGESERQLRLLFDQAYQMRPAIIFFDEIDGLAPVRSSRQDQIHSSIVSTLLALMDGLDSRGEIVVIGATNRLDSIDPALRRPGRFDREFLFSLPDKNARKEILKIHTRDWNPKPVDMFLEELAEHCVGYCGADIKSICAEAALCALRRRYPQIYTTSEKLQLDLSSITISAKDFEAALQKIRPASQRAVTSPGQALSAIVKPLLQNTVHRILDALQKVFPHVEVGTNKSLNSDVSCPFLESDLAYSDDDTPSVYENGLSQKENLNFLHLNRNACYQPMSFRPRLLIVGEPGFGQSSHLAPAVIHALEKFTVYTLDIPVLFGISTTSPEEACSQMIREAKRTAPSIVYVPHIHLWWEIVGPTLKATFTTLLQTIPSFAPVLLLATSEKPYSALPEEVQELFTHDYGEIFNVQLPDKEERTKFFEDLILKQASKPPVSQKKAVLQALEVLPVAPPPEPRPLTAEEVKRLEEQEEDTFRELRIFLRNVTHRLAIDKRFRVFTKPVDPDEVPDYVTVIKQPMDLSSVISKIDLHKYLTVKDYLKDIDLICSNALEYNPDRDPGDRLIRHRACALRDTAYAIIKEELDEDFEQLCEEIQESRKKRGCSSSKYAPSYYHVMPKQNSPPVGDKKPDQEQNEKLKVPCTPVACSTPAQLKRKFHKKSKWHVGTKIKRRKISQAKDNSLNAMNSSSRSDTEDSQHTHAEHTEPGNTDESSVEESDKQNRLESNIDLKNNSSSSNIENELEEPKETTEGTELRKDRIVCRGDASASQVTDIPEDSESKEMDFLRMTLARGSQVEQQELISMEQALAILSQPTPSLVLDHKQLTNILKTVVKKSQKYNIFQLENLYAVISQCIYEHRRDYDKTALVQKMEQAVENFNCSRS"}}}
{"variants_of": "B1", "settings": "with h4_mouse H4c11, P62806"}
{"variant": "Y670F", "effect of a mutation on the interaction": "disrupting interaction"}
{"variant": "K128S", "effect of a mutation on the interaction": "disrupting interaction"}
